Columns and labels:
[1] = Insulin release from CLIP fabricated PAA cylinders dissolved in water (sandwich ELISA); format: physicochemical
Description: Insulin (Sigma) was incorporated into test parts with identical dimensions described in FIG. 22A using CLIP and a resin containing 87.1 wt % acrylic acid monomer, 2.52 wt % DPO photo initiator, 10.4 wt % acetic acid, 0.17 wt % human insulin. Resin of an identical composition, excluding the […] insulin, was used as a negative control for insulin incorporation and release. Parts were fabricated using continuous printing on the CLIP7 apparatus (Carbon 3D) with a drawspeed of 100 mm/hr and 14.5 mW/cm2 light intensity. CLIP fabricated PAA parts were dissolved in 2 mL of water and the solution was then centrifuged at 20,000×g for 10 minutes to remove any insoluble material and insulin release was quantified using an sandwich ELIS A method (3A6 anti-insulin coating antibody, 8E2-HRP detection antibody from AbCam) combined with and an insulin standard curve. Insulin was readily detected in dissolved CLIP fabricated PAA cylinders made with insulin containing resin (FIG. 25) with an average of 0.5 unit/mL insulin (1 unit/cylinder), which was close to the theoretical insulin loading levels of 1 unit per cylinder based on PAA cylinder dry weight (20-22 mg). No insulin was detected in the supernatant of dissolved vehicle control cylinders (FIG. 25), validating the specificity of the ELISA-based insulin assay. […]

[2] = value used for insulin loading calculation; cited from earlier work
[3] = OVA-647 release from CLIP fabricated PAA cylinders dissolved in water (fluorescence plate reader); format: physicochemical; conditions: PAA cylinder from resin with 0.01 wt % OVA-647, dissolved in 2 mL of water, versus vehicle control cylinders
Description: Fluorescently labeled (Alexa Fluor® 647) model vaccine antigen ovalbumin (referred to as OVA-647) was incorporated into a PAA matrix using CLIP and a resin containing […] (Sigma), 2.3 wt % DPO photo initiator (Sigma), […], 0.01 wt % OVA-647 (Invitrogen). Resin of an identical composition, excluding the 0.01 wt % OVA-647, was used as a negative control for OVA-647 incorporation. The shape of the CLIP fabricated test parts was cylindrical with 3 mm diameter×3 mm height, containing a hollowed out center 1.5 mm diameter (FIG. 22A and FIG. 22B). Parts were fabricated using continuous printing on the CLIP7 apparatus (Carbon 3D) with a drawspeed of 100 mm/hr and 8.4 mW/cm2 light intensity. OVA-647 incorporation into CLIP fabricated PAA parts was confirmed using microscopy (FIG. 22C). The OVA-647 and vehicle control PAA cylinders were dissolved in 2 mL of water and the solution was then centrifuged at 20,000×g for 10 minutes to remove any insoluble material and OVA-647 release was measured using a fluorescence plate reader.
Referring to FIG. 23, vehicle PAA cylinders (containing 8.97 wt % water) or OVA-647 resin ([…] in water) were tested. Each bar represents an independent cylinder dissolved in 2 mL of water and the supernatant was measured for OVA-647 fluorescence. Values were normalized to a standard curve of soluble OVA-647. […]

Molecule	insulin release per cylinder ([1]; PAA cylinder dissolved in 2 mL of water)	insulin release, average concentration in dissolved cylinder solution ([1]; PAA cylinder from resin with 0.17 wt % human insulin, dissolved in 2 mL of water)	max solubility [2]	OVA-647 release (fluorescence in supernatant) [3]
Insulin: Human insulin (Sigma) incorporated into CLIP fabricated PAA cylinders	1 unit/cylinder	0.5 unit/mL	10000 µg/mL	
OVA-647: Fluorescently labeled (Alexa Fluor 647) model vaccine antigen ovalbumin, incorporated into PAA cylinders (protein, UniProt P01012 2-386, looked up, Alexa Fluor 647 label, Fluorescently labeled (Alexa Fluor 647) model vaccine antigen ovalbumin, incorporated into PAA cylinders) Ovalbumin: GSIGAASMEFCFDVFKELKVHHANENIFYCPIAIMSALAMVYLGAKDSTRTQINKVVRFDKLPGFGDSIEAQCGTSVNVHSSLRDILNQITKPNDVYSFSLASRLYAEERYPILPEYLQCVKELYRGGLEPINFQTAADQARELINSWVESQTNGIIRNVLQPSSVDSQTAMVLVNAIVFKGLWEKAFKDEDTQAMPFRVTEQESKPVQMMYQIGLFRVASMASEKMKILELPFASGTMSMLVLLPDEVSGLEQLESIINFEKLTEWTSSNVMEERKIKVYLPRMKMEEKYNLTSVLMAMGITDVFSSSANLSGISSAESLKISQAVHAAHAEINEAGREVVGSAEAGVDAASVSEEFRADHPFLFCIKHIATNAVLFFGRCVSP				readily detected above background florescence levels

Reference: patent US10792857B2, “Polymeric microneedles and rapid additive manufacturing of the same” (The University of North Carolina at Chapel Hill, priority 2015, dated 2020)
